We go through eleven molecules from patent publication US20050203288A1 (DEUTSCHES KREBSFORSCHUNGSZENTRUM STIFUNG DES OFFENTLICHEN …, published 2005).

Sequences and labels used below:
T1: Livin-β (UniProt Q96CA5-2 1-280, limits assumed)
T1 construct: the beta isoform is meant; also called Livin (beta)
T1 sequence (looked up): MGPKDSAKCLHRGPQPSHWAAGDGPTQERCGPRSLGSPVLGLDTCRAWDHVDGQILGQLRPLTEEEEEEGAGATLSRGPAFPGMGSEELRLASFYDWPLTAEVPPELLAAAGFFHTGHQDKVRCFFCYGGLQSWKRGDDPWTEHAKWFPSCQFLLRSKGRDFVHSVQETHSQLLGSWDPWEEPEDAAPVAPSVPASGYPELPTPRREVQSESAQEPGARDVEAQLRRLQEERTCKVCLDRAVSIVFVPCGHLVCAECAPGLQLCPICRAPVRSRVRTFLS

B1: peptide number 77 (peptide, not shown: large carriers)
chain: GPFSEHARGHVVTICRLRLLFWLLRSAEIYES
notes: that construct is not described for linear peptides
B2: peptide number 5 (peptide, not shown: large carriers)
chain: GSRFRVFVCSLFSFLSGRGGGVVVLRSAEIYES
notes: as for B1
B3: peptide number 16 (peptide, not shown: large carriers)
chain: GPHSSAHDRIWLRVRGLRIILLVLRSAEIYES
notes: as for B1
B4: peptide number 69 (peptide, not shown: large carriers)
chain: GPFPFDYPRWIMIVLLRGVLRSAEIYES
notes: as for B1
B5: peptide number 90 (peptide, not shown: large carriers)
chain: GPYPYLRILLVQKIACVRRALWVLRSAEIYES
notes: as for B1
B6: peptide number 7 (peptide, not shown: large carriers)
chain: GPFKRCHERLVAFARCWFMWSMVLRSAEIYES
notes: as for B1
B7: peptide number 65 (peptide, not shown: large carriers)
chain: GAGLGRVIRLRIVVLRCIFLLFRVLRSAEIYES
notes: as for B1
B8: peptide number 15 (peptide, not shown: large carriers)
chain: GSGCGCFVRGRIVRIRCVILLLRVLRSAEIYES
notes: as for B1
B9: peptide number 54 (peptide, not shown: large carriers)
chain: GPWWKDRGVLVRLCVLRLVVGVVLRSAEIYES
notes: Mammalian two-hybrid construct not described for linear peptides
B10: peptide number 75 (peptide, not shown: large carriers)
chain: GSRCIRRRISILFFVFRVLRSRRVLRSAEIYES
notes: as for B1
B11: peptide number 40 (peptide, not shown: large carriers)
chain: GSGCVRIRVGIVRRMLFLRFVFLVP
notes: as for B1

One assay deals with T1, Livin-β. Briefly: yeast two-hybrid.
With B1, the binding result is on record as “binds”.

For B2, the binding result is on record as “binds”.

For B3, the binding result is “binds”.

As to B4, the binding result is “binds”.

Consider B5, for which the binding result is reported as “binds”.

As for B6, the binding result is reported as “binds”.

For the molecule B7, the binding result is listed as “binds”.

With B8, the binding result was “binds”.

With B9, the binding result was “binds”.

On to B10, for which the binding result is on record as “binds”.

A further assay deals with T2, c-IAP-1 (UniProt Q13490 1-618, limits assumed).
T2 construct: construct not described
T2 sequence (Q13490 whole entry): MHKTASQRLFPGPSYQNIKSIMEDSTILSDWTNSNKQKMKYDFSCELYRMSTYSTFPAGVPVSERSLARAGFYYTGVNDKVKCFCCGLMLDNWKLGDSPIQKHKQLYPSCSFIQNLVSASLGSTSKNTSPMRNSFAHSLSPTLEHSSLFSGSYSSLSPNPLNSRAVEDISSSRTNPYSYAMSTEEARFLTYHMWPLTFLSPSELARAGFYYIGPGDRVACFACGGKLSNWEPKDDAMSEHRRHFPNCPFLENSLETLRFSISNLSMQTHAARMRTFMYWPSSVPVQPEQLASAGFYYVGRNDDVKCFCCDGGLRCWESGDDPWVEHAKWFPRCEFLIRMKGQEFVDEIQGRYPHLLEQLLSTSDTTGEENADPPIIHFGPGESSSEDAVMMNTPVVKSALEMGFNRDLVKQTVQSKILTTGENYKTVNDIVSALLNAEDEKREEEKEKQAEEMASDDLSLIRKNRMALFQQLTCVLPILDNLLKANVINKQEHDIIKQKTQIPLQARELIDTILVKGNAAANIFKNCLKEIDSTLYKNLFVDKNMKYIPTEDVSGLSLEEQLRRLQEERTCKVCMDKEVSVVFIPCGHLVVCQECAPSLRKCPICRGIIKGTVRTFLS
Nature of the assay: yeast two-hybrid.
Take B1: the binding result is “no binding”.

Take B2: the binding result is “no binding”.

As to B3, the binding result is “no binding”.

With B4, the binding result is given as “no binding”.

As to B5, the binding result is recorded as “no binding”.

As for B6, the binding result is reported as “no binding”.

B11: the binding result is on record as “no binding”.

Turning to B7, the binding result was “no binding”.

For B8, the binding result is given as “no binding”.

Consider B9, for which the binding result is reported as “no binding”.

In the case of B10, the binding result is given as “no binding”.

The target of another assay is T3, c-IAP-2 (UniProt Q13489 1-604, limits assumed).
T3 construct: construct not described; also called c-LAP-2
T3 sequence (Q13489 whole entry): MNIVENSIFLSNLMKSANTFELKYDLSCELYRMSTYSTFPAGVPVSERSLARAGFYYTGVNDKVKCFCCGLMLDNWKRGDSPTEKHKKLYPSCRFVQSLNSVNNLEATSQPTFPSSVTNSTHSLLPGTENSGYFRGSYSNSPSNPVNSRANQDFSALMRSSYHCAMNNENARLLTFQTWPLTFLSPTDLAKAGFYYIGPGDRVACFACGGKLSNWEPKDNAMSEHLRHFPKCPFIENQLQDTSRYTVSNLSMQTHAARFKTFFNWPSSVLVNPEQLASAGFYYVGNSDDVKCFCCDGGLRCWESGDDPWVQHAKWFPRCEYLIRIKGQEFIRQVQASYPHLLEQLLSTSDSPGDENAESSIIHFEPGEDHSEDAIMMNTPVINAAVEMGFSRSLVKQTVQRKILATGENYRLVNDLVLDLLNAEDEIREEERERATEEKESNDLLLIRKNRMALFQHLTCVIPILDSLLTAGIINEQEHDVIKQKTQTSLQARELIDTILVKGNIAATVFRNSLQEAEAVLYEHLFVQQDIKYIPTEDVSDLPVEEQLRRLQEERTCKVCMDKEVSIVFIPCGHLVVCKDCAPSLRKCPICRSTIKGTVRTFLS
Nature of the assay: yeast two-hybrid.
For B1, the binding result is reported as “no binding”.

Regarding B2, the binding result was “no binding”.

Consider B3, for which the binding result was “no binding”.

For the molecule B4, the binding result was “no binding”.

On to B5, for which the binding result is listed as “no binding”.

In the case of B6, the binding result is recorded as “no binding”.

In the case of B11, the binding result was “no binding”.

As to B7, the binding result is “no binding”.

Turning to B8, the binding result was “no binding”.

For B9, the binding result was “no binding”.

With B10, the binding result was “no binding”.

Another assay deals with T4, XIAP (UniProt P98170 1-497, limits assumed).
T4 construct: construct not described
T4 sequence (P98170 whole entry): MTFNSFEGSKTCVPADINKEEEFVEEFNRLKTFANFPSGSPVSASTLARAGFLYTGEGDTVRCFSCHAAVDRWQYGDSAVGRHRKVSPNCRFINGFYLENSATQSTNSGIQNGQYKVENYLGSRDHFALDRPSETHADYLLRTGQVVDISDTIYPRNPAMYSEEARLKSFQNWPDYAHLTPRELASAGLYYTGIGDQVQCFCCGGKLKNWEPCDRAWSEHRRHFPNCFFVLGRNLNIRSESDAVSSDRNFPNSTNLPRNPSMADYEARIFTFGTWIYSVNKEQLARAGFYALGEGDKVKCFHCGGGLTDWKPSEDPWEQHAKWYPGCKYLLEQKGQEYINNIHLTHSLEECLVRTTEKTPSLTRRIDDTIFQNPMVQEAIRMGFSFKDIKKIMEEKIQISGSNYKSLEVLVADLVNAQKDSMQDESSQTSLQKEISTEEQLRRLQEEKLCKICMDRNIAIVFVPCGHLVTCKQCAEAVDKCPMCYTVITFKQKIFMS
Nature of the assay: yeast two-hybrid.
B1: the binding result is reported as “binds”.

For the molecule B2, the binding result was “no binding”.

Take B3: the binding result was “no binding”.

On to B4, for which the binding result is recorded as “no binding”.

Regarding B5, the binding result is given as “no binding”.

Turning to B6, the binding result was “no binding”.

As for B11, the binding result was “no binding”.

In the case of B7, the binding result was “no binding”.

As to B8, the binding result is recorded as “no binding”.

For the molecule B9, the binding result is recorded as “no binding”.

In the case of B10, the binding result is “no binding”.

The target in a further assay is T5, Survivin (UniProt O15392 1-142).
T5 construct: construct not described; also called surivin
T5 sequence (O15392 whole entry): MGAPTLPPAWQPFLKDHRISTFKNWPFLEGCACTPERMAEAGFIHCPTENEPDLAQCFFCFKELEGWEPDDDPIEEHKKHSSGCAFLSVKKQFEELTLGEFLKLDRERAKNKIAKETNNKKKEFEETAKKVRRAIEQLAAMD
Nature of the assay: yeast two-hybrid.
For the molecule B1, the binding result is “no binding”.

Take B2: the binding result was “no binding”.

For the molecule B3, the binding result is given as “no binding”.

As to B4, the binding result is reported as “no binding”.

Consider B5, for which the binding result is on record as “no binding”.

Consider B6, for which the binding result is reported as “no binding”.

On to B11, for which the binding result is recorded as “no binding”.

For B7, the binding result is given as “no binding”.

For B8, the binding result was “no binding”.

For B9, the binding result is recorded as “no binding”.

B10: the binding result was “no binding”.
